Source: US20220298218A1 (ANTAG THERAPEUTICS, published 2022)
Where no end group is shown, it is not given here. [ ]: non-standard residue; d: D form. The star is where a group is joined. C16 diacid = O=C(O)CCCCCCCCCCCCCCC(=O)*; Nle = CCCC[C@H](N)C(=O)O; Aib = CC(C)(N)C(=O)O

T1: human GIP receptor (human, UniProt P48546 22-466)
T1 sequence (looked up): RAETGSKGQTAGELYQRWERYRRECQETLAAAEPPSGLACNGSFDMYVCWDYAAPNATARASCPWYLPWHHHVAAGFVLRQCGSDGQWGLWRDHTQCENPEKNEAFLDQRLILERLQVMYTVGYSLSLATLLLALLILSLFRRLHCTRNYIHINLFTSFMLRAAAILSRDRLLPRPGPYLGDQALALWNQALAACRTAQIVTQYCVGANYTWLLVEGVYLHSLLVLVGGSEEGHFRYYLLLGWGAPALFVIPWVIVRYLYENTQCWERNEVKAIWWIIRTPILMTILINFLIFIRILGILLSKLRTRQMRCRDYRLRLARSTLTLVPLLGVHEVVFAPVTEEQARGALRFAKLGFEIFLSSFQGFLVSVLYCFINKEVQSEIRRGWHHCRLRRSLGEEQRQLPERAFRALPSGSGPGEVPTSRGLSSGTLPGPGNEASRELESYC

B1: AT613 (peptide)
peptide: EGTFISEYSIAMEKIK(C16 diacid)QQEFVQWLLAQKPSSGAPPPS-OH
modifications: N-terminus assumed
SMILES: CC[C@H](C)[C@H](NC(=O)[C@H](CO)NC(=O)[C@H](Cc1ccc(O)cc1)NC(=O)[C@H](CCC(=O)O)NC(=O)[C@H](CO)NC(=O)[C@@H](NC(=O)[C@H](Cc1ccccc1)NC(=O)[C@@H](NC(=O)CNC(=O)[C@@H](N)CCC(=O)O)[C@@H](C)O)[C@@H](C)CC)C(=O)N[C@@H](C)C(=O)N[C@@H](CCSC)C(=O)N[C@@H](CCC(=O)O)C(=O)N[C@@H](CCCCN)C(=O)N[C@H](C(=O)N[C@@H](CCCCNC(=O)CCCCCCCCCCCCCCC(=O)O)C(=O)N[C@@H](CCC(N)=O)C(=O)N[C@@H](CCC(N)=O)C(=O)N[C@@H](CCC(=O)O)C(=O)N[C@@H](Cc1ccccc1)C(=O)N[C@H](C(=O)N[C@@H](CCC(N)=O)C(=O)N[C@@H](Cc1c[nH]c2ccccc12)C(=O)N[C@@H](CC(C)C)C(=O)N[C@@H](CC(C)C)C(=O)N[C@@H](C)C(=O)N[C@@H](CCC(N)=O)C(=O)N[C@@H](CCCCN)C(=O)N1CCC[C@H]1C(=O)N[C@@H](CO)C(=O)N[C@@H](CO)C(=O)NCC(=O)N[C@@H](C)C(=O)N1CCC[C@H]1C(=O)N1CCC[C@H]1C(=O)N1CCC[C@H]1C(=O)N[C@@H](CO)C(=O)O)C(C)C)[C@@H](C)CC
B2: AT614 (peptide)
peptide: EGTFISEYSIAMEKIK(C16 diacid)QQDFVEWLLAQKPSSGAPPPS-OH
modifications: N-terminus assumed
SMILES: CC[C@H](C)[C@H](NC(=O)[C@H](CO)NC(=O)[C@H](Cc1ccc(O)cc1)NC(=O)[C@H](CCC(=O)O)NC(=O)[C@H](CO)NC(=O)[C@@H](NC(=O)[C@H](Cc1ccccc1)NC(=O)[C@@H](NC(=O)CNC(=O)[C@@H](N)CCC(=O)O)[C@@H](C)O)[C@@H](C)CC)C(=O)N[C@@H](C)C(=O)N[C@@H](CCSC)C(=O)N[C@@H](CCC(=O)O)C(=O)N[C@@H](CCCCN)C(=O)N[C@H](C(=O)N[C@@H](CCCCNC(=O)CCCCCCCCCCCCCCC(=O)O)C(=O)N[C@@H](CCC(N)=O)C(=O)N[C@@H](CCC(N)=O)C(=O)N[C@@H](CC(=O)O)C(=O)N[C@@H](Cc1ccccc1)C(=O)N[C@H](C(=O)N[C@@H](CCC(=O)O)C(=O)N[C@@H](Cc1c[nH]c2ccccc12)C(=O)N[C@@H](CC(C)C)C(=O)N[C@@H](CC(C)C)C(=O)N[C@@H](C)C(=O)N[C@@H](CCC(N)=O)C(=O)N[C@@H](CCCCN)C(=O)N1CCC[C@H]1C(=O)N[C@@H](CO)C(=O)N[C@@H](CO)C(=O)NCC(=O)N[C@@H](C)C(=O)N1CCC[C@H]1C(=O)N1CCC[C@H]1C(=O)N1CCC[C@H]1C(=O)N[C@@H](CO)C(=O)O)C(C)C)[C@@H](C)CC
B3: AT615 (peptide)
peptide: EGTFISEYS[Aib]A[Nle]EKIK(C16 diacid)QQDFVEWLLAQKPSSGAPPPS-OH
modifications: N-terminus assumed
SMILES: CCCC[C@H](NC(=O)[C@H](C)NC(=O)C(C)(C)NC(=O)[C@H](CO)NC(=O)[C@H](Cc1ccc(O)cc1)NC(=O)[C@H](CCC(=O)O)NC(=O)[C@H](CO)NC(=O)[C@@H](NC(=O)[C@H](Cc1ccccc1)NC(=O)[C@@H](NC(=O)CNC(=O)[C@@H](N)CCC(=O)O)[C@@H](C)O)[C@@H](C)CC)C(=O)N[C@@H](CCC(=O)O)C(=O)N[C@@H](CCCCN)C(=O)N[C@H](C(=O)N[C@@H](CCCCNC(=O)CCCCCCCCCCCCCCC(=O)O)C(=O)N[C@@H](CCC(N)=O)C(=O)N[C@@H](CCC(N)=O)C(=O)N[C@@H](CC(=O)O)C(=O)N[C@@H](Cc1ccccc1)C(=O)N[C@H](C(=O)N[C@@H](CCC(=O)O)C(=O)N[C@@H](Cc1c[nH]c2ccccc12)C(=O)N[C@@H](CC(C)C)C(=O)N[C@@H](CC(C)C)C(=O)N[C@@H](C)C(=O)N[C@@H](CCC(N)=O)C(=O)N[C@@H](CCCCN)C(=O)N1CCC[C@H]1C(=O)N[C@@H](CO)C(=O)N[C@@H](CO)C(=O)NCC(=O)N[C@@H](C)C(=O)N1CCC[C@H]1C(=O)N1CCC[C@H]1C(=O)N1CCC[C@H]1C(=O)N[C@@H](CO)C(=O)O)C(C)C)[C@@H](C)CC
B4: AT616 (peptide)
peptide: EGTFISEYSI[Aib]MEKIK(C16 diacid)QQDFVEWLLAQKPSSGAPPPS-OH
modifications: N-terminus assumed
SMILES: CC[C@H](C)[C@H](NC(=O)[C@H](CCCCN)NC(=O)[C@H](CCC(=O)O)NC(=O)[C@H](CCSC)NC(=O)C(C)(C)NC(=O)[C@@H](NC(=O)[C@H](CO)NC(=O)[C@H](Cc1ccc(O)cc1)NC(=O)[C@H](CCC(=O)O)NC(=O)[C@H](CO)NC(=O)[C@@H](NC(=O)[C@H](Cc1ccccc1)NC(=O)[C@@H](NC(=O)CNC(=O)[C@@H](N)CCC(=O)O)[C@@H](C)O)[C@@H](C)CC)[C@@H](C)CC)C(=O)N[C@@H](CCCCNC(=O)CCCCCCCCCCCCCCC(=O)O)C(=O)N[C@@H](CCC(N)=O)C(=O)N[C@@H](CCC(N)=O)C(=O)N[C@@H](CC(=O)O)C(=O)N[C@@H](Cc1ccccc1)C(=O)N[C@H](C(=O)N[C@@H](CCC(=O)O)C(=O)N[C@@H](Cc1c[nH]c2ccccc12)C(=O)N[C@@H](CC(C)C)C(=O)N[C@@H](CC(C)C)C(=O)N[C@@H](C)C(=O)N[C@@H](CCC(N)=O)C(=O)N[C@@H](CCCCN)C(=O)N1CCC[C@H]1C(=O)N[C@@H](CO)C(=O)N[C@@H](CO)C(=O)NCC(=O)N[C@@H](C)C(=O)N1CCC[C@H]1C(=O)N1CCC[C@H]1C(=O)N1CCC[C@H]1C(=O)N[C@@H](CO)C(=O)O)C(C)C
B5: AT617 (peptide)
peptide: EGTFISDYSIAMDKIK(C16 diacid)QQDFVEWLLAQKPSSGAPPPS-OH
modifications: N-terminus assumed
SMILES: CC[C@H](C)[C@H](NC(=O)[C@H](CO)NC(=O)[C@H](Cc1ccc(O)cc1)NC(=O)[C@H](CC(=O)O)NC(=O)[C@H](CO)NC(=O)[C@@H](NC(=O)[C@H](Cc1ccccc1)NC(=O)[C@@H](NC(=O)CNC(=O)[C@@H](N)CCC(=O)O)[C@@H](C)O)[C@@H](C)CC)C(=O)N[C@@H](C)C(=O)N[C@@H](CCSC)C(=O)N[C@@H](CC(=O)O)C(=O)N[C@@H](CCCCN)C(=O)N[C@H](C(=O)N[C@@H](CCCCNC(=O)CCCCCCCCCCCCCCC(=O)O)C(=O)N[C@@H](CCC(N)=O)C(=O)N[C@@H](CCC(N)=O)C(=O)N[C@@H](CC(=O)O)C(=O)N[C@@H](Cc1ccccc1)C(=O)N[C@H](C(=O)N[C@@H](CCC(=O)O)C(=O)N[C@@H](Cc1c[nH]c2ccccc12)C(=O)N[C@@H](CC(C)C)C(=O)N[C@@H](CC(C)C)C(=O)N[C@@H](C)C(=O)N[C@@H](CCC(N)=O)C(=O)N[C@@H](CCCCN)C(=O)N1CCC[C@H]1C(=O)N[C@@H](CO)C(=O)N[C@@H](CO)C(=O)NCC(=O)N[C@@H](C)C(=O)N1CCC[C@H]1C(=O)N1CCC[C@H]1C(=O)N1CCC[C@H]1C(=O)N[C@@H](CO)C(=O)O)C(C)C)[C@@H](C)CC
B6: AT618 (peptide)
peptide: EGTFISDYSIALDKIK(C16 diacid)QQDFVNWLLAQKPSSGAPPPS-OH
modifications: N-terminus assumed
SMILES: CC[C@H](C)[C@H](NC(=O)[C@H](CO)NC(=O)[C@H](Cc1ccc(O)cc1)NC(=O)[C@H](CC(=O)O)NC(=O)[C@H](CO)NC(=O)[C@@H](NC(=O)[C@H](Cc1ccccc1)NC(=O)[C@@H](NC(=O)CNC(=O)[C@@H](N)CCC(=O)O)[C@@H](C)O)[C@@H](C)CC)C(=O)N[C@@H](C)C(=O)N[C@@H](CC(C)C)C(=O)N[C@@H](CC(=O)O)C(=O)N[C@@H](CCCCN)C(=O)N[C@H](C(=O)N[C@@H](CCCCNC(=O)CCCCCCCCCCCCCCC(=O)O)C(=O)N[C@@H](CCC(N)=O)C(=O)N[C@@H](CCC(N)=O)C(=O)N[C@@H](CC(=O)O)C(=O)N[C@@H](Cc1ccccc1)C(=O)N[C@H](C(=O)N[C@@H](CC(N)=O)C(=O)N[C@@H](Cc1c[nH]c2ccccc12)C(=O)N[C@@H](CC(C)C)C(=O)N[C@@H](CC(C)C)C(=O)N[C@@H](C)C(=O)N[C@@H](CCC(N)=O)C(=O)N[C@@H](CCCCN)C(=O)N1CCC[C@H]1C(=O)N[C@@H](CO)C(=O)N[C@@H](CO)C(=O)NCC(=O)N[C@@H](C)C(=O)N1CCC[C@H]1C(=O)N1CCC[C@H]1C(=O)N1CCC[C@H]1C(=O)N[C@@H](CO)C(=O)O)C(C)C)[C@@H](C)CC

The binders below were run against T1, human GIP receptor (assay: cell-based or functional assay).
In the case of B1, the “cAMP agonism % Emax” value is reported as 0%, the “cAMP antagonism” value is reported as 1.47 nM and the “cAMP antagonism % inhib” value is reported as 100%. For the same binder, the “cAMP antagonism pIC50” value was 8.8.
For B2, the “cAMP agonism % Emax” value was 0%, the “cAMP antagonism” value was 1.08 nM and the “cAMP antagonism % inhib” value was 100%. For the same binder, the “cAMP antagonism pIC50” value was 9.
B3 was tested, and the “cAMP agonism % Emax” value was 0%, the “cAMP antagonism” value was 7.94 nM and the “cAMP antagonism % inhib” value was 97%. The “cAMP antagonism pIC50” value was 8.1.
For B4, the “cAMP agonism % Emax” value was 0%, the “cAMP antagonism” value was 0.473 nM and the “cAMP antagonism % inhib” value was 100%. For the same binder, the “cAMP antagonism pIC50” value was 9.3.
In the case of B5, the “cAMP agonism % Emax” value is reported as 0%, the “cAMP antagonism” value is reported as 0.794 nM and the “cAMP antagonism % inhib” value is reported as 91%. The “cAMP antagonism pIC50” value was 9.1.
With B6 the “cAMP agonism % Emax” value was 0%, the “cAMP antagonism” value was 3.98 nM and the “cAMP antagonism % inhib” value was 82%. The “cAMP antagonism pIC50” value was 8.4.
EGTFISDYSIALDKIKQQDFVNWLLAQKPSSGAPPPS (Nle at 14; K18: C16-diacid; C-term COOH) [AT619] was tested, and the “cAMP agonism % Emax” value was 0%, the “cAMP antagonism” value was 2.19 nM and the “cAMP antagonism % inhib” value was 87%. The “cAMP antagonism pIC50” value was 8.7.
